Assay results: publication PMC2670497
pEC50: −log10 of the molar value.

Key:
[1] = target: vimentin expressed from pCMV-SPORT6-vimentin in MFT-16 vim-/- cells (UniProt P08670); experiment: flow cytometry on cells; cells transfected with pCMV-SPORT6-vimentin or mock-transfected, 24 hours later incubated with wildtype CPMV at 5x10^5 virions per cell for 2 hours; percent CPMV-positive cells; data not shown
[2] = target: surface vimentin on HeLa cells (human (endogenous in HeLa)) (UniProt P08670); experiment: as above
[3] = target: purified recombinant vimentin protein (UniProt P08670); experiment: ELISA; 1 ug vimentin immobilised overnight on Immulon 2 HB plates in 0.1 M KPO4 pH 7.0; varying molar concentrations of CPMV, 1 hour, room temperature; detected with anti-CPMV polyclonal antibody; avidity not ruled out

Cowpea mosaic virus (CPMV) particles, wild type (complex)
percent of cells CPMV-positive [1]: 1.21%
percent of cells CPMV-positive [2]: 5.36%
pEC50 [3]: 8.43
